assay: yeast display, Sf9 membrane polyspecificity reagent, FACS + sequencing; frameworks hold sequencing errors
In short: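 A synthetic nanobody library was expressed on Saccharomyces cerevisiae BJ5465 by galactose induction for 36–48 hours. The library was stained for 1 hour at 4 °C with 10% biotinylated, detergent-solubilized Sf9 membrane reagent and enriched with streptavidin microbeads before FACS. Low and high (top ~1%) gates were set on anti-HA fluorescence for expression and streptavidin fluorescence for reagent binding, and each polyreactivity label reflects the gate of origin.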

Row | Sequence | polyreactivity (PSR sort gate)
1 | QVQLVQSGAGLVQAGGSLRLSCAPSGFIFRRYDMAWYRQAPGKERELVAAITSSGGTTYYADSVKGRFTNSRDNAKNTVYLQMNSLKPEDTAVYYCNAVRGVYARRSDYWGQGTQVTVSS | high polyreactivity
2 | QVQLVESGGGLVQAGGSLRLSCAASGRTFLVYAMGWYRQAPGKERELVAAISFSDGITYYADSVKGRFTISRDNAKNTVYIQMNSLKPEDTAVYYCATEILDYYYGSEYDYWGQGTQVTVSS | high polyreactivity
3 | QVQLVESGGGLVQAGGSLRLSCAASGSTFILYAMGCYIQAPGKERELVAAITASGGSTYADSVKGRFTISRDNSKNTVYLQMNSLKPEDSAVYYCAARRWSSKYRKYDYWGQGTQVTVSS | high polyreactivity
4 | QVQLVESGGGLVQAGGSLRLSCAASGSTFQYYAMGWYRQAPGKERELVARISDSSANTYYADSVKGRFTISRDNAKNTVYLQMNSLKPEDTAVYYCAASVPYKFYSVVSVRYEYWGQGTQVTVSS | low polyreactivity
5 | QVQLVESGGGLVQAGGSLRLSCAASGSIFNPYVMGWYRQAPGKERELVAAISSSGGRTYYADSVKGRFTLSRDNAKNTVDFQMNSLKPEDTAVYYCAAKPRQGYDYWGQGTQVTVSS | high polyreactivity
6 | QVQLVESGGGLVQAGRSLRLICAASGSIFRKYAMCWYRQAPVKESELVAAINYSGGNTYYADSVKGRFTISRDNSKNTVYLQMNSLKPEDTAVYFCAADSVRHYWWAYYYWGQVTQVTVSS | low polyreactivity
7 | QVQLVESGGGLVQAGGSLRLSCAASGRTSKVYAMGWYRQAPGKERELVARITSSGVRTYYADSVKGRFTISRDNAKNTVYLQMNRLKPEDTAVYYCAKDARALWLHSGIYDYWGQGTQVTVSS | low polyreactivity
8 | QVQLEESGGGLVQAGGSLRFSFAASGSIFRYYAMGWYRQAPGKERELVANISRGCSTYYADSVKGRFTISRDNAKKTVYLQMNSLKPDDTAVYYCAADISERYDYWGQGTQVTVSS | high polyreactivity
9 | QVQLVESGGGLVQAGGSLRLSCAASGRTFYSYAMGWYSQAPGKERELVATISSNADGTYYADSVKGRFTISRDNAKNTVYLQMNSLKPEDTAVYYCAATYRRSHRYNYWGQGTQVTVSS | high polyreactivity
10 | QVQLVESGGGLVQAGGSLRLSCAASGSTFGYYAMGWYRQAPGKESELVATINWSGGSTYYADSVKGRFTISRDNAKNTVYLQMNSLKPEDTAVYYCAADPYLQYYWAYDYWGQGTQVTVSS | low polyreactivity
11 | QLQLVESGGGLVQAGGSLRLSCAASGSIFAIYAMGWYRQAPGKERELVAAISDGGGTNYADSVKGRFTISRDNAKNTVYLQMNSLKPEDTAVYYCAADLGWSTYVSNGPKGYDHWGQGTQVTVSS | low polyreactivity
12 | QVQLVESGGGLVQAGGSLRLSCAASGRIFYYNTMGWYRQSPGKERELVAAISSTASTTYADSVKGRFTISRENAKNTVYLKMNILKPEDTAVYYCAAAYSVRGRTYDSWGQGTQVTVSS | high polyreactivity
13 | QDQLVESGGGLVQAGGSLRLSCAASGSIFYRYAMGWYRQARGKVREFVAGITYSSGTTYYADSVKGRFTISRDNAKNTVYLQMNSLKPEETAVYYCAAELRSSYYRRAMDYCGQGTQVTVSS | high polyreactivity
14 | QVQLVESGGGLVQAGGSLRLICAASGSIFRSYSMGWYRQAPGKERELVAGINRSGASTYYADSVKGRFTISRDNAKNTVYLQMNSMKPEDTAVSYCNARAQRGGYNYWGQGTQVTVSS | high polyreactivity
15 | QVQLVESGGGLVQAGGSLRLTCAASGIIFQNYAMGWYRQAPGKERELVAGITGRGGITYYTDSVKGRFTISRDNAKNTVYVQMNSLKPEDTAVSSCAARRYRFAGDYRMYYWGQGTQVTVSS | high polyreactivity
16 | QVQLVESGGGLVQAGGSLRLSCAASGRTFYLYAMGWYIQAPGKERELVAGISRSGGSTYYADSVKGRFTISRDNAKNTVYLQMNSLKPEDTAVYYCAAGYYYWGQGTQVTVSS | high polyreactivity
17 | QVQLVESGGGLVQAGGSLRLSCAASGSTFTYYAMGWYRQAPGKERELVAAITGRGGRTYYADSVKGRFTISRDNAKNSVYLQMNSLKREDTAVYYCNTVGLNYGYQYSNGYWGQGSQVTVSS | high polyreactivity
18 | QVQLVESGGGLVQAGGSLRLSCAASGSIFRVYAMGWYRQAPGKERELVAAISWGRGTTYYADSVKGRFTISRDNAKNTVYLQMTSLKPEDTAVYYCAAGGVGAYDYWGQGTQVTVSS | high polyreactivity
19 | QVQLVESGGGLVQAGVSLRLSCAASGSTLYGYAMGWYRQAPGKERELVAAINTGGSTNYADSVKGRFTISRDNSKNTVYLQMNSLKPEDTAVYYCAASYSLTFWDKDDYWGQGTQVTVSS | low polyreactivity
20 | QVQLVESGGGLVQAGGSLRLSCAASGRIFNWYAMGWYRQAPGKERELVARISSGDITSYADSVKGRFTISRDNAKNTVYLQMNRLKPEDTAVYYCDARQWFLYDYWGQGTQVTVSS | low polyreactivity
21 | QVPLEESGGGLVQAGGSLRLSCAASGFIIGLNAMGWYRQAPGKERELVAVITFSGGSTYYADSVKGRFTISRDNAKNTVFFQMNSLKPEDTAVYYCAARYYWYSVGYGYWGQGTQVTVSS | high polyreactivity
22 | QVQLVESGGGLVQAGGSLRLSCAASGRIFGYYTMGSYRQAPGKEREFVASISSTGGSTYYADSVKGRFTISRDNAKNTVYLQMNSLKPEDTAVYYCAARGRYVIDGYRMYYWGQGTQVTVSS | high polyreactivity

Row | Sequence | polyreactivity (PSR sort gate)
23 | QVQLVESGGGLVQAGGSLRLSCAASGLTFYVYAMGWYRQAPGKERELVAAISSGGRTYYADSVKGRFTISRDNAKNTVYLQMTSLKPEDTAVYYCAAVRHRNYGYWGQGTQVTVSS | high polyreactivity
24 | QVHLVESGGGLVQAGGSLRLSCAASGRTFWIYGMGWYRPATGKERELVAAITRSGGSTNYADSVKGRFTLSRDNAKNNVYLQMNSLKPEVTAVYYGAADTWYPGYYAYDYRGQGTQVTVSS | high polyreactivity
25 | QVQLVESGGGLVQAGGSLRLSCAASGRIFDYYAMGWYRQAPGKERELVAAISLIGASTYYADSVKGRFTISRDNAKNTVYLQMNSLKPEDTAVYYCAAEFYLRRFKVTKRYWFDYWGQGTQVTVSS | low polyreactivity
26 | QVQLVESGGGLVQAGGSLRLSCAASGGIFSGNDMGWYRHAPGKESEFVAAISWSGGSTYYADSVKGRFTISRDNAKNTVYLQMNSLKPEDTAVYYCAAAHYFLGPQGASFYYWGQGTQVTVSS | low polyreactivity
27 | QVQLVESGGGLVQAGGSLSLSCAASGSIFNRYTMGWYRQAPGKERELVADISKSGTRTYYADSVKGRFTISRDNAKNTVYLQMNSQKPEDTSVYYCAKSSVAVYQTRYDYWGQGTQVNVSS | high polyreactivity
28 | QVQLVESGGGLVQAGGSLRLSFAASGSILSYYAMGWYTQAPGKERELGAAISKSGGRTYYADSVKGRFTISRDNEKNTVYLQMNSLKPEDTAVYYCAADRYYLSRRPVQNGNEYWGQGTQVTVSS | high polyreactivity
29 | QVQLVESGGGLVHAGGSLRLSCSASGSILKSYAMGWYRQAPGKERDLVAAITYRDGSTYYADSVKGRFTISRDTAKNTVYLQMISLKPEDTAVYYCASEPYWWNVFYPGYNYWGQGNQVTVSS | high polyreactivity
30 | QDQLVESGGCLVQAGGSLRLSCAASGSIFTKYAMGWYRQAPGKERELVAAIDVNGGSTRYADSVKGRFTISRDNAKNTVYLQMNSLKPEDTAVYYCAKDYTASYYPQGLYDYWGQGTQVTVSS | low polyreactivity
31 | PVQLVESGGGLVQAGGSLRLSCAASGSTFAYNAMGWYRQAPGKERELVAAISWSGGTTYYADSVKGRFTISPDNAKNPVYLQMNSLKPEDTAVYYCAADVYLNRRQRMYYWGQGTQVTVSS | high polyreactivity
32 | QVQLVESGGGLVQAGGSLRLICAASGYIFVRNAMGWYRQAPGKEREFVATISRRGGTTYYADSVKGRFTISRDNAKNTVYLQMNSLKPEDTAVYYCAARNWPSRGYKYWGQGTQVTVSS | high polyreactivity
33 | QVQLVESGGGLVQAGGSLRLSCAASGSTFWKYVIGWYRQEPGKERELVAAITSRGGSTYADSVKGRFTISRDNAKNTVYLQMNSLKPEDTAVYYCAATKFWYYGYDYWGQGTQVTVSS | low polyreactivity
34 | QVQLVESGGGLVQAGGSLRLSCAASGFTFSVYAMGWYRQAPGKERELVATITDSGSTNYADSVKGRFTISRDNAKNTVYLQMNSLKPEDTAVYYCNADFRRYVTYHYYRAVIHHDYWGQGTQVTVSS | high polyreactivity
35 | QVQLVESGGGLVQAGGSLRLSCAASGSILIWNTMGWYRQAPGKERELVAAISISGGSTYYADSVKGRFTISRDNAKNTVYLQVNSLKPEDTAVYYCAAEVAYYYYSWGTSGYWGQGTQVTVSS | low polyreactivity
36 | QDQLVESVGCLVQAGGSLRLSCAASGLTIQRNDMGWYRQAPGKEREFVATITSNAGSTYYADSVKGRFTISRDNAKNTVYLQKNSLKPEDTAVYYCARERWWGGSDYWGQGTQVTVSS | high polyreactivity
37 | QVQLVESGVGLVQAGGSLRLICAASGSTFGYYAMGWYRQAPGKERELVAAITGRGGSTYYADSVKGRFTISRDNAKNTVYLQMNSLKPEDTAVYYCAVGKYRLYYSGAYGFWGQGTQVTVSS | high polyreactivity
38 | QVQLVESGGGLVQAGGSLRLSCAASGLTFVRYAMGWYRQAPGKERELVAAITTRGGSTYYADSVKGRFTISRDNAKNTVYLQMNSLKPEDTAVFYCNADRVTSSSVRYDYWGQGTQVTVSS | high polyreactivity
39 | QVQLVESGGGLVHAGGSLRLSCAASGSTFYENAMGWYRQAPGKERELVAAITWSGGRTYYADSVKGRFTISRDNAKNTVYLQMNSLKPEDTAVYYCAAGLFVGFDYWGQGTQVTVSS | high polyreactivity
40 | QVQLVESGGGLVQAGGRLRLSCAASGRTFDTNAMGWYRQAPGKQRELVAVITARGGNTSYADSVKGRFTISRDYAKNTVYLLMNRLKPEDTAVYLCAARVYRAPWTYVEGNYWGQGTQVTVSS | low polyreactivity
41 | QVKLVESGGGLVQEGGSLRLSCAASGRIFGNYAMGWYRQAPGKERELVAAIDLSGDSTYYADSVKGRFTISRDNAKNTVYLQMNSLKPEDTAVYYCAATDWFSEYFWGQGTQVTVSS | low polyreactivity
42 | QVQLVESGGGLVQAGGSLRLTCAASGRIFYRYAMGWYRQAPWKERELVAAIRYSGGRTYYADSVKGRFTISRDNAKNTVYLQMNSLQPEDTAVYYCAADGQWYYAPFRGGDYENDYWGQGTQVTVPS | low polyreactivity
43 | QVQHVESGGGLVQAGGSLRLSCAASGRTFALNAMGWYRQAPGKERELVAAISWSSGRTYYADSVKGRFTISRDNAKNTVYLQMNSLKPEDTAVYYCAALVAHKGDYWGQGTQVTVSS | high polyreactivity

Reference: the nanobody polyreactivity screen of Harvey et al. (2022)
